Patent US20060172958A1, “Phospholipid scramblase 3” (priority 2003, published 2006)

Key:
[1] = target: phospholipid scramblase 3 alpha (PLS3α) (human) (UniProt Q9NRY6); experiment: cell-based or functional assay
[2] = target: phospholipid scramblase 3 (PLS3), human, isoform not stated (human) (UniProt Q9NRY6); experiment: co-immunoprecipitation with PLS3 antibody, estimated against a PKC-δ blot (not shown)
Chain of phospholipid scramblase 3 (PLS3), human, isoform not stated (human) (Q9NRY6 whole entry, canonical isoform): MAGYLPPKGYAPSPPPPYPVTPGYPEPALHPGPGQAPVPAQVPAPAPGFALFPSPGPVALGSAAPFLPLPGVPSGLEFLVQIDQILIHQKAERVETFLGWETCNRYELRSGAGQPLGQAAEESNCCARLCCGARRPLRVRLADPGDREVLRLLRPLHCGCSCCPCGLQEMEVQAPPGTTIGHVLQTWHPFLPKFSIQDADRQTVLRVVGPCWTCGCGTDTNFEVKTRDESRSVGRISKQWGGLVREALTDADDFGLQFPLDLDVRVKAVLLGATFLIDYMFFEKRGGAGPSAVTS

Chain of phospholipid scramblase 3 alpha (PLS3α) (human) (Q9NRY6 other isoform, or with tags, fused parts or gaps limits assumed): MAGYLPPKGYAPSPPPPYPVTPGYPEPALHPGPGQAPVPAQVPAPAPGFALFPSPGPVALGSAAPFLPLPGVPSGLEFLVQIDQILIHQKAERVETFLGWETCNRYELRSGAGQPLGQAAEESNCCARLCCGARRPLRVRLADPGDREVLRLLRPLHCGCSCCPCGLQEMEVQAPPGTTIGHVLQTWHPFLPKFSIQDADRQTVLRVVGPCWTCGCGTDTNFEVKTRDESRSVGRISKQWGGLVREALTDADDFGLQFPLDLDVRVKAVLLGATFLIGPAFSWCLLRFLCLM

Row | percentage of cardiolipin at the outer membrane (shoulder of the NAO curve) [1] | proportion of sub-G1 cells, or the apoptotic population (propidium iodide) [1] | percent of total cellular PKC-δ co-immunoprecipitated with PLS3 [2] | Substance
1 | 50% | 15.4% |  | Bcl-B (untagged, from pcDNA-Bcl-B or pBcl-B-IRES-EGFP) (from UniProt Q9HD36 1-204)
2 |  |  | 5 to 10% | PKC-δ (cellular, HEK293 cells) (from UniProt Q05655 1-676) (enzyme)
